One data set deals with EBY.VW4000. The data set is described as follows: Xylose uptake assay with radioactively labelled xylose. The conditions noted are these: for Vmax: xylose uptake, Michaelis-Menten fit (GraphPad Prism), three replicates, figures give velocity in nmol xylose per minute per milligram cell dry mass; for xylose uptake rate compared to wild type: FIGS. 7 and 8. It counts as cell-based, Saccharomyces cerevisiae. The text has this: FIG. 7: Xylose uptake assay of Gal2_N376Y, N376Y+M435I and Gal2 wild type in EBY.VW4000 (three independent replicates). The uptake velocity is shown in nmol xylose per minute per milligram cell dry mass.
FIG. 8: Xylose uptake assay of Gal2_N376F, N376F+M435I and Gal2 wild type in EBY.VW4000 (three independent replicates). The uptake velocity is shown in nmol xylose per minute per milligram cell dray mass.
Sugar uptake assays were done as described by Bisson et al. (Bisson and Fraenkel, 1983) with modifications according to Walsh et al. (Walsh et al., 1994).
Transformants of strain EBY.VW4000 were grown in selective YEPE to an OD of 1.1-1.6, harvested by centrifugation and washed twice in ice-cold uptake-buffer (RT, 3 min, 3000×g). Cells were kept on ice from here on. The cell pellet was resuspended in ice-cold uptake-buffer to a concentration of 60 mgww/ml and aliquoted to 110 μl. One cell suspension aliquot and one sugar solution were incubated in a water bath at 30° C. for 4-5 min. 100 μl of the cell suspension were pipetted to the sugar solution (50 μl), mixed briefly by pipetting and incubated for 5 (D-[U-^14C]-glucose) or 20 sec (D-[1-^14C]-xylose). The uptake reaction was stopped by transferring 100 μl of the mixture into 10 ml ice-cold quenching-buffer, which was immediately filtered through a Durapore membrane filter (0.22 μm pore size, Millipore). The filter was washed twice with 10 ml ice-cold quenching-buffer, transferred to a scintillation vial containing 4 ml scintillation cocktail (Rotiszint eco plus, Roth) and shaken thoroughly. Additionally to this filter sample (cpmfilter), 10 μl of each reaction were transferred directly to a scintillation vial with 4 ml scintillation cocktail for determination of the total counts in the reaction (cpmtotal). To determine a value for sugar that is bound unspecifically to the cell surface or the filter (cpmblank) a few samples of 33,3 μl sugar solution and 66,6 μl cell suspension were mixed in 10 ml icecold quenching buffer and treated as described above. Radioactivity of all vials was analysed in an Wallac 1409 liquid scintillation counter.
Stocksolutions of 2M, 500 mM or 20 mM glucose or xylose (in H2O) were used to prepare the sugar solutions for the assays (threefold of the desired concentration in the uptake reaction (S, substrate concentration), 50 μl aliquots). Uptake was measured at sugar concentrations 0.2, 1, 5, 25 and 100 mM for glucose and 1, 5, 25, 66, 100, 200 and 500 mM for xylose. Inhibition of xylose uptake by glucose was measured at 25, 66 and 100 mM xylose with additional 25 and 100 mM unlabelled glucose. Sugar solutions contained 0.135 to 0.608 μCi of D-[U-^14C]-glucose (290-300 mCi/mmol) or D-[1-^14C]-xylose (55 mCi/mmol) (American Radiolabeled Chemicals Inc., St. Louis, Mo., USA).
The amount of sugar (Asugar in nmol) taken up during the incubation time (t, in seconds) at a certain sugar concentration (S, in mM): Asugar=((cpmsample−cpmblank)/(cpmtotal·10))·S·100 μl
Transport velocity (in nmol·min^−1·mgww^−1) calculated per milligrams of cell (m, in mgww): V=(Asugar·60 s)/(t·m)
Calculation of Km (Michaelis constant), Vmax (maximal initial uptake velocity) and Ki (inhibitor constant for competitive inhibition) was done by nonlinear regression analysis and global curve fitting in Prism 5 (GraphPad Software, Inc.) with values of three independent measurements.
Xylose uptake of Gal2_N376F, N376F+M435I, N376Y und N376Y+M435I was characterized with a sugar uptake assay. The relevant plasmids were transformed in strain EBY.VW4000. Cells were cultivated in SCM-ura until they reached the exponential growth phase (OD600˜0.6). Then cells were harvested, concentrated to the same OD600 (OD600 35-40), separated into different aliquots and stored on ice.
Three uptake assays (in tripicates) were performed with different concentrations of radioactively labelled xylose. Data were collected and fittet with GraphPad Prism according to Michaelis Menten (FIGS. 7 and 8).

Another data set relates to AFY10. Nature of the data set: Serial dilution drop test on xylose and xylose-glucose media. It counts as cell-based, Saccharomyces cerevisiae. The conditions noted are these: 0.2% (2 g/l) xylose. As for the experimental part:
The transformants were cultivated in 5 ml SCE-ura-leu with 2% ethanol at 30°, washed with water and adjusted to an OD600 of 1. Thereof it followed a serial dilution. 5 μl were dropped onto the respective media and it was incubated for five days at 30°. As a control for the dilution SCE-ura-leu with 2% ethanol was taken. The cells of the mutated transporters were dropped onto SCX-ura-leu with 0.2% and 2% D-xylose, as well as SC-ura-leu with 1% D-xylose with 4% D-glucose and SC-ura-leu with 0.2% D-xylose and 2% D-glucose to test their functionality. Furthermore the wild type and Gal2_ep3.1 were used for comparison.
FIG. 5: Drop test of Gal2_M435I in AFY10 after five days at 30°. Several dilutions were dropped from left to right (undiluted, 1:10, 1:100, 1:1000).
FIG. 6: Drop test of Gal2_N376F, N376F+M435I and N376Y+M435I in AFY10 after five days at 30°. Several dilutions were dropped from left to right (undiluted, 1:10, 1:100, 1:1000). But on 20 g/l xylose the order was different (undiluted, 1:100, 1:1000, 1:10).
For easy comparison of growth of different S. cerevisiae strains under various growth conditions a serial dilution spot assay was performed. Cells were grown in liquid culture to exponential phase in appropriate medium, collected by centrifugation (2000×g, 2 min), washed twice with sterile water and then resuspended to an OD600 of 1.0 in selective medium without carbon source. From this cell suspension a ten-fold serial dilution was prepared in selective medium (four dilution steps). 6 μl of each cell suspension were spotted on plates of the media to be examined and allowed to dry. Plates were incubated at 30° C.
To characterize the different constructs which all were verified by sequencing they were transformed together with vector YEp181_pHXT7-optXI_Clos into competent AFY10 cells and drop tests were performed.

B1: N376F: Gal2 variant with amino acid substitution N376F (protein, UniProt P13181 1-574, looked up, variant N376F)
Galactose transporter: MAVEENNMPVVSQQPQAGEDVISSLSKDSHLSAQSQKYSNDELKAGESGSEGSQSVPIEIPKKPMSEYVTVSLLCLCVAFGGFMFGWDTGTISGFVVQTDFLRRFGMKHKDGTHYLSNVRTGLIVAIFNIGCAFGGIILSKGGDMYGRKKGLSIVVSVYIVGIIIQIASINKWYQYFIGRIISGLGVGGIAVLCPMLISEIAPKHLRGTLVSCYQLMITAGIFLGYCTNYGTKSYSNSVQWRVPLGLCFAWSLFMIGALTLVPESPRYLCEVNKVEDAKRSIAKSNKVSPEDPAVQAELDLIMAGIEAEKLAGNASWGELFSTKTKVFQRLLMGVFVQMFQQLTGNNYFFYYGTVIFKSVGLDDSFETSIVIGVVFFASTFFSLWTVENLGHRKCLLLGAATMMACMVIYASVGVTRLYPHGKSQPSSKGAGNCMIVFTCFYIFCYATTWAPVAWVITAESFPLRVKSKCMALASASNWVWGFLIAFFTPFITSAINFYYGYVFMGCLVAMFFYVFFFVPETKGLSLEEIQELWEEGVLPWKSEGWIPSSRRGNNYDLEDLQHDDKPWYKAMLE
In the case of B1, the Vmax with EBY.VW4000 is 25.86. Also, in the data set on AFY10, the “growth on low xylose” value is reported as “better than that of Gal2_N376Y+M435I”.

B2: N376Y: Gal2 variant with amino acid substitution N376Y (protein, UniProt P13181 1-574, looked up, variant N376Y)
Galactose transporter: MAVEENNMPVVSQQPQAGEDVISSLSKDSHLSAQSQKYSNDELKAGESGSEGSQSVPIEIPKKPMSEYVTVSLLCLCVAFGGFMFGWDTGTISGFVVQTDFLRRFGMKHKDGTHYLSNVRTGLIVAIFNIGCAFGGIILSKGGDMYGRKKGLSIVVSVYIVGIIIQIASINKWYQYFIGRIISGLGVGGIAVLCPMLISEIAPKHLRGTLVSCYQLMITAGIFLGYCTNYGTKSYSNSVQWRVPLGLCFAWSLFMIGALTLVPESPRYLCEVNKVEDAKRSIAKSNKVSPEDPAVQAELDLIMAGIEAEKLAGNASWGELFSTKTKVFQRLLMGVFVQMFQQLTGNNYFFYYGTVIFKSVGLDDSFETSIVIGVVYFASTFFSLWTVENLGHRKCLLLGAATMMACMVIYASVGVTRLYPHGKSQPSSKGAGNCMIVFTCFYIFCYATTWAPVAWVITAESFPLRVKSKCMALASASNWVWGFLIAFFTPFITSAINFYYGYVFMGCLVAMFFYVFFFVPETKGLSLEEIQELWEEGVLPWKSEGWIPSSRRGNNYDLEDLQHDDKPWYKAMLE
Regarding B2, in the data set with EBY.VW4000, the “xylose uptake rate compared to wild type” value is listed as “strong reduction” and the Vmax amounted to 11.92.

B3: N376F + M435I: Gal2 variant with amino acid substitutions N376F and M435I (protein, UniProt P13181 1-574, looked up, variant N376F M435I)
Galactose transporter: MAVEENNMPVVSQQPQAGEDVISSLSKDSHLSAQSQKYSNDELKAGESGSEGSQSVPIEIPKKPMSEYVTVSLLCLCVAFGGFMFGWDTGTISGFVVQTDFLRRFGMKHKDGTHYLSNVRTGLIVAIFNIGCAFGGIILSKGGDMYGRKKGLSIVVSVYIVGIIIQIASINKWYQYFIGRIISGLGVGGIAVLCPMLISEIAPKHLRGTLVSCYQLMITAGIFLGYCTNYGTKSYSNSVQWRVPLGLCFAWSLFMIGALTLVPESPRYLCEVNKVEDAKRSIAKSNKVSPEDPAVQAELDLIMAGIEAEKLAGNASWGELFSTKTKVFQRLLMGVFVQMFQQLTGNNYFFYYGTVIFKSVGLDDSFETSIVIGVVFFASTFFSLWTVENLGHRKCLLLGAATMMACMVIYASVGVTRLYPHGKSQPSSKGAGNCIIVFTCFYIFCYATTWAPVAWVITAESFPLRVKSKCMALASASNWVWGFLIAFFTPFITSAINFYYGYVFMGCLVAMFFYVFFFVPETKGLSLEEIQELWEEGVLPWKSEGWIPSSRRGNNYDLEDLQHDDKPWYKAMLE
Take B3: in the data set with EBY.VW4000, the “xylose uptake rate compared to wild type” value is “reduced uptake rate” and the Vmax amounted to 13.81. For the same molecule, the “growth on low xylose” value in the data set on AFY10 is recorded as “grow the best”.

The record behind these values is patent publication US10308692B2, “Variants of GAL2 transporter and their uses” (Johann Wolfgang Goethe-Universität Frankfurt, priority 2014, dated 2019).
